{"source": "paper PMC6474364", "about": "“The Carbon Switch at the Level of Pyruvate and Phosphoenolpyruvate in Sulfolobus solfataricus P2” (Frontiers in Microbiology, 2019)", "molecules": {"B1": {"name": "PK (SSO0981) (Saccharolobus solfataricus P2) (protein)", "chain": "MRKTKIVATLGPSSEEKVKELAEYVDVFRINFAHGDETSHRKYFDLIRTYAPESSIIVDLPGPKLRLGELKEPIEVKKGDKIVFSQKDGIPVDDELFYSAVKENSDILIADGTIRVRVKSKAKDRVEGTVIEGGILLSRKGINIPNVNLKSGITDNDLKLLKRALDLGADYIGLSFVISENDVKKVKEFVGDEAWVIAKIEKSEALKNLTNIVNESDGIMVARGDLGVETGLENLPLIQRRIVRTSRVFGKPVILATQVLTSMINSPIPTRAEIIDISNSIMQGVDSIMLSDETAIGNYPVESVRTLHNIISNVEKSVKHRPIGPLNSESDAIALAAVNASKVSKADVIVVYSRSGNSILRVSRLRPERNIIGVSPDPRLAKKFKLCYGVIPISINKKMQSIDEIIDVSAKLMQEKIKDLKFKKIVIVGGDPKQEAGKTNFVIVKTLEQQKK", "notes": "full-length ORF in pET324, E. coli Rosetta (DE3) pRIL; heat precipitation, ion exchange, gel filtration; no tag mentioned"}, "B2": {"name": "PEPS (SSO0883) (Saccharolobus solfataricus P2) (protein)", "chain": "MGSFLLVEAISSEEDLILDVSQVTKDMVQLAGGKGANLGELTSIGVRVPPAFILTSKAFKYFLEYNNLFDKIRDTLSSSETSEEASEKIKQLIKNAKMPDKLSSMIYQAYDELSKKVGKEILVAVRSSATAEDIETASFAGQQDTYLNVTKDELIDRIKDVWASLYNARAMEYRKSKGIDDLSILIAVVVQKMVNSRSAGVMFTLHPVTGDEKYIMIESNWGLGESVVGGKVTPDEVLIEKSTLRIVEKKVSNKNIKIVYDKQLKKNVTITLDEKESRLMSITDEEAIELAKLALKIEEHYKRPMDIEWAIDNDLSFPENIFIVQARPETFWSSKRKENKNIAEKSAPIGGKVLVRGLAASPGIAFGKAKIILDIKDPKVHEFQKGEILVTKMTDPDWVPLMKIAGAIITDEGGMTSHAAIVSRELGIPAIVGSREATKIIRDNQEITVDAIRGIVYEGKVLQTSETVSQQAQPSIGIQGISREVLLSLYPVTATKIYMNLGEPDVIDKYLDLPFDGIGLMRIEFIVSEWVRYHPLYLIKIGNAELFVDKLAEGIAKVASAIYPRPVVVRFSDFKTNEYKKLIGGEEFEPDERNPMIGWRGVSRYVSKEYEPAFRLEAKAIRKVREEMGLKNVWVMFPFVRTTWELEKAIKIMEEEGLRRDSDFKVWIMAEVPSVVVLAEEFAKIVDGFSVGSNDLAQLTLGVDRDSELLARMGYYDERDPAVLESIRKLIKAAHKYGKTVSICGQAPSVYPAVVEYLVKAGIDSISVNPDAVINVRRQVASIEQQIILRNLNGKRKNK", "notes": "full-length, codon-optimised synthetic gene in pET11c, E. coli Rosetta (DE3) pRIL; partially purified by heat precipitation; no tag mentioned"}}, "key": {"PEPS (SSO0883)": {"target": "T1, PEPS (SSO0883) (Saccharolobus solfataricus, UniProt Q97ZL2)", "T1 construct": "gene ppsA-1; full-length, codon-optimised synthetic gene in pET11c, E. coli Rosetta (DE3) pRIL; partially purified by heat precipitation; no tag mentioned", "T1 sequence (Q97ZL2 1-799)": "B2 chain", "test": "discontinuous assay, PEP detected with PK/LDH, NADH […] nm", "format": "biochemical", "settings": "read-out: % residual activity at 1 mM"}, "PK (SSO0981)": {"target": "T2, PK (SSO0981) (Saccharolobus solfataricus, UniProt Q97ZD7)", "T2 construct": "gene pyK; full-length ORF in pET324, E. coli Rosetta (DE3) pRIL; heat precipitation, ion exchange, gel filtration; no tag mentioned", "T2 sequence (Q97ZD7 1-452)": "B1 chain", "test": "continuous LDH-coupled assay, NADH […] nm", "format": "biochemical", "settings": "non-competitive, allosteric; printed Ki equals the approximate concentration for 50% inhibition; half-saturating 0.03 mM PEP, 2 mM ADP, 10 mM MgCl2, 60°C (b61 says 70°C)"}, "purified protein [1]": {"substrate": "Nc1ncnc2c1ncn2[C@@H]1O[C@H](COP(=O)(O)OP(=O)(O)O)[C@@H](O)[C@H]1O", "test": "purified protein", "format": "biochemical, Saccharolobus solfataricus", "settings": "70°C, pH 6.5, 0.1 M HEPES, 10 mM MgCl2, co-substrate PEP"}, "purified protein [2]": {"substrate": "C=C(OP(=O)(O)O)C(=O)O", "test": "purified protein", "format": "biochemical, Saccharolobus solfataricus", "settings": "70°C, pH 6.5, 0.1 M HEPES, 10 mM MgCl2, co-substrate ADP"}, "purified protein [3]": {"substrate": "CC(=O)C(=O)O", "test": "purified protein", "format": "biochemical, Saccharolobus solfataricus", "settings": "70°C, pH 7.0, 100 mM Tris/HCl, 10 mM MgCl2, co-substrate ATP, anabolic direction"}, "purified protein [4]": {"substrate": "Nc1ncnc2c1ncn2[C@@H]1O[C@H](COP(=O)(O)OP(=O)(O)OP(=O)(O)O)[C@@H](O)[C@H]1O", "test": "purified protein", "format": "biochemical, Saccharolobus solfataricus", "settings": "70°C, pH 7.0, 100 mM Tris/HCl, 10 mM MgCl2, co-substrate pyruvate, anabolic direction"}}, "data": [{"molecule": "O=C(O)CCC(=O)C(=O)O", "note": "[α-ketoglutarate]", "values": [{"measurement": "remaining activity at 1000 µM", "setting": "PEPS (SSO0883)", "value": "~80", "unit": "%"}]}, {"molecule": "Nc1ncnc2c1ncn2[C@@H]1O[C@H](COP(=O)(O)O)[C@@H](O)[C@H]1O", "note": "[AMP]", "values": [{"measurement": "remaining activity at 1000 µM", "setting": "PEPS (SSO0883)", "value": "~80", "unit": "%"}]}, {"molecule": "Nc1ncnc2c1ncn2[C@@H]1O[C@H](COP(=O)(O)OP(=O)(O)OP(=O)(O)O)[C@@H](O)[C@H]1O", "note": "[ATP]", "values": [{"measurement": "IC50", "setting": "PK (SSO0981)", "value": 800, "unit": "µM"}]}, {"molecule": "B1", "values": [{"measurement": "Km", "setting": "purified protein [1]", "value": 70, "unit": "µM"}, {"measurement": "Vmax", "setting": "purified protein [1]", "value": 70.8, "unit": "µmol/min/mg"}, {"measurement": "kcat", "setting": "purified protein [1]", "value": 58.8, "unit": "s⁻¹"}, {"measurement": "kcat/Km", "setting": "purified protein [1]", "value": 852000, "unit": "M⁻¹ s⁻¹"}, {"measurement": "Km", "setting": "purified protein [2]", "value": 90, "unit": "µM"}, {"measurement": "Vmax", "setting": "purified protein [2]", "value": 70.4, "unit": "µmol/min/mg"}, {"measurement": "kcat", "setting": "purified protein [2]", "value": 58.4, "unit": "s⁻¹"}, {"measurement": "kcat/Km", "setting": "purified protein [2]", "value": 628000, "unit": "M⁻¹ s⁻¹"}]}, {"molecule": "B2", "values": [{"measurement": "Km", "setting": "purified protein [3]", "value": 460, "unit": "µM"}, {"measurement": "Vmax", "setting": "purified protein [3]", "value": 0.32, "unit": "µmol/min/mg"}, {"measurement": "kcat", "setting": "purified protein [3]", "value": 0.48, "unit": "s⁻¹"}, {"measurement": "kcat/Km", "setting": "purified protein [3]", "value": 1040, "unit": "M⁻¹ s⁻¹"}, {"measurement": "Km", "setting": "purified protein [4]", "value": 610, "unit": "µM"}, {"measurement": "Vmax", "setting": "purified protein [4]", "value": 0.22, "unit": "µmol/min/mg"}, {"measurement": "kcat", "setting": "purified protein [4]", "value": 0.33, "unit": "s⁻¹"}, {"measurement": "kcat/Km", "setting": "purified protein [4]", "value": 530, "unit": "M⁻¹ s⁻¹"}]}]}
